Reference: FireProtDB (doi:10.1021/bi961660c)
Values joined by “and” are separate entries in the source; they are usually repeats but may differ in a detail not shown here. Equal values may be shown once.

B1: Tryptophan synthase alpha chain, P0A877 (parent)
chain: MERYESLFAQLKERKEGAFVPFVTLGDPGIEQSLKIIDTLIEAGADALELGIPFSDPLADGPTIQNATLRAFAAGVTPAQCFEMLALIRQKHPTIPIGLLMYANLVFNKGIDEFYAQCEKVGVDSVLVADVPVEESAPFRQAALRHNVAPIFICPPNADDDLLRQIASYGRGYTYLLSRAGVTGAENRAALPLNHLVAKLKEYNAAPPLQGFGISAPDQVKAAIDAGAAGAISGSAIVKIIEQHINEPEKMLAALKVFVQPMKAATRS

Variants of: B1
Conditions: Escherichia coli (strain K12), pH 7, 25 °C, GdnHCl, CD, Tris-HCl 20 mM, reversible: yes, structure 1WQ5, whole UniProt chain shown

Question: What does the source list for MERYESLFAQLKERKEGAFVPFVTLGDPGIEQSLKIIDTLIEAGADALELGIPFSDALADGPTIQNATLRAFAAGVTPAQCFEMLALIRQKHPTIPIGLLMYANLVFNKGIDEFYAQCEKVGVDSVLVADVPVEESAPFRQAALRHNVAPIFICPPNADDDLLRQIASYGRGYTYLLSRAGVTGAENRAALPLNHLVAKLKEYNAAPPLQGFGISAPDQVKAAIDAGAAGAISGSAIVKIIEQHINEPEKMLAALKVFVQPMKAATRS [P57A]?
Answer: ddG of mutation (higher = less stable): 0.48 kcal/mol; unfolding free energy: 7.73 kcal/mol; ddG of mutation (higher = less stable) (transition: 3): 0.24 kcal/mol; unfolding free energy (transition: 3): 4 kcal/mol and 3.76 kcal/mol

Question: With MERYESLFAQLKERKEGAFVPFVTLGDPGIEQSLKIIDTLIEAGADALELGIPFSDPLADGPTIQNATLRAFAAGVTPAQCFEMLALIRQKHPTIAIGLLMYANLVFNKGIDEFYAQCEKVGVDSVLVADVPVEESAPFRQAALRHNVAPIFICPPNADDDLLRQIASYGRGYTYLLSRAGVTGAENRAALPLNHLVAKLKEYNAAPPLQGFGISAPDQVKAAIDAGAAGAISGSAIVKIIEQHINEPEKMLAALKVFVQPMKAATRS [P96A] as the variant, how does the “ddG of mutation (higher = less stable)” value read?
Answer: Its value is 2.13 kcal/mol.

Question: What about the unfolding free energy of the same variant?
Answer: The unfolding free energy was 6.08 kcal/mol.

Question: And the “ddG of mutation (higher = less stable)” value (transition: 3)?
Answer: Its value is 1.6 kcal/mol and 0.55 kcal/mol.

Question: And the unfolding free energy (transition: 3)?
Answer: Its unfolding free energy is 2.63 kcal/mol and 3.44 kcal/mol.

Question: For MERYESLFAQLKERKEGAFVPFVTLGDPGIEQSLKIIDTLIEAGADALELGIPFSDPLADGPTIQNATLRAFAAGVTPAQCFEMLALIRQKHPTIPIGLLMYANLVFNKGIDEFYAQCEKVGVDSVLVADVPVEESAPFRQAALRHNVAPIFICPPNADDDLLRQIASYGRGYTYLLSRAGVTGAENRAALPLNHLVAKLKEYNAAAPLQGFGISAPDQVKAAIDAGAAGAISGSAIVKIIEQHINEPEKMLAALKVFVQPMKAATRS [P207A], which unfolding free energy (transition: 3) is on record?
Answer: The unfolding free energy was 2.44 kcal/mol and 4.62 kcal/mol.

Question: What does the source list for MERYESLFAQLKERKEGAFVPFVTLGDAGIEQSLKIIDTLIEAGADALELGIPFSDPLADGPTIQNATLRAFAAGVTPAQCFEMLALIRQKHPTIPIGLLMYANLVFNKGIDEFYAQCEKVGVDSVLVADVPVEESAPFRQAALRHNVAPIFICPPNADDDLLRQIASYGRGYTYLLSRAGVTGAENRAALPLNHLVAKLKEYNAAPPLQGFGISAPDQVKAAIDAGAAGAISGSAIVKIIEQHINEPEKMLAALKVFVQPMKAATRS [P28A]?
Answer: ddG of mutation (higher = less stable): 1.91 kcal/mol; unfolding free energy: 6.29 kcal/mol; unfolding free energy (transition: 3): 2.27 kcal/mol and 4.04 kcal/mol

Question: With MERYESLFAQLKERKEGAFVPFVTLGDPGIEQSLKIIDTLIEAGADALELGIPFSDPLADGPTIQNATLRAFAAGVTPAQCFEMLALIRQKHPTIPIGLLMYANLVFNKGIDEFYAQCEKVGVDSVLVADVAVEESAPFRQAALRHNVAPIFICPPNADDDLLRQIASYGRGYTYLLSRAGVTGAENRAALPLNHLVAKLKEYNAAPPLQGFGISAPDQVKAAIDAGAAGAISGSAIVKIIEQHINEPEKMLAALKVFVQPMKAATRS [P132A] as the variant, how does the “ddG of mutation (higher = less stable)” value read?
Answer: Its value is 1.05 kcal/mol.

Question: What about the unfolding free energy of the same variant?
Answer: Its unfolding free energy is 7.15 kcal/mol.

Question: What about the unfolding free energy (transition: 3) of the same variant?
Answer: Its unfolding free energy is 3.33 kcal/mol and 3.85 kcal/mol.

Question: Which “ddG of mutation (higher = less stable)” value does the source give for MERYESLFAQLKERKEGAFVPFVTLGDPGIEQSLKIIDTLIEAGADALELGIPFSDPLADGATIQNATLRAFAAGVTPAQCFEMLALIRQKHPTIPIGLLMYANLVFNKGIDEFYAQCEKVGVDSVLVADVPVEESAPFRQAALRHNVAPIFICPPNADDDLLRQIASYGRGYTYLLSRAGVTGAENRAALPLNHLVAKLKEYNAAPPLQGFGISAPDQVKAAIDAGAAGAISGSAIVKIIEQHINEPEKMLAALKVFVQPMKAATRS [P62A] here?
Answer: The value was 0.31 kcal/mol.

Question: What about the unfolding free energy of the same variant?
Answer: The unfolding free energy was 7.89 kcal/mol.

Question: What about the unfolding free energy (transition: 3) of the same variant?
Answer: Its unfolding free energy is 3.54 kcal/mol and 4.35 kcal/mol.
